Article PMC3643586 (Nucleic Acids Research, 2013)
Values joined by “and” are separate entries in the source; they are usually repeats but may differ in a detail not shown here. Equal entries are not always repeated. Where two headings read alike, the source gives them in different places. Blank lines part the entries; values can stand above or below the molecule they belong to.

B3: Bacillus subtilis clamp-loader τ subunit (natural protein, UniProt P09122 1-563, looked up)
chain: MSYQALYRVFRPQRFEDVVGQEHITKTLQNALLQKKFSHAYLFSGPRGTGKTSAAKIFAKAVNCEHAPVDEPCNECAACKGITNGSISDVIEIDAASNNGVDEIRDIRDKVKFAPSAVTYKVYIIDEVHMLSIGAFNALLKTLEEPPEHCIFILATTEPHKIPLTIISRCQRFDFKRITSQAIVGRMNKIVDAEQLQVEEGSLEIIASAADGGMRDALSLLDQAISFSGDILKVEDALLITGAVSQLYIGKLAKSLHDKNVSDALETLNELLQQGKDPAKLIEDMIFYFRDMLLYKTAPGLEGVLEKVKVDETFRELSEQIPAQALYEMIDILNKSHQEMKWTNHPRIFFEVAVVKICQTSHQSAADLPEVDMLMKKIQQLEQEVERLKTTGIKAAAESPKKEAPRVPKGGKSNYKAPVGRIHEILKEATRPDLDLLRNSWGKLLAHLKQQNKVSHAALLNDSEPVAAGSAAFVLKFKYEIHCKMVAEDNNGVRTNLEQILESMLGKRMDLIGVPEAQWGKIREEFLEDHQQENEGSNEPAEEDPLIAEAKKLVGADLIEIKD

What was measured:
Experiment in all cases: native MS
[1] = target: Bacillus subtilis clamp-loader δ subunit (yqeN) (Bacillus subtilis) (UniProt P54459)
[2] = target: B3
native MS [3] = target: the molecule itself
[4] = target: B3; remark: listed apart in the source
[5] = target: B3; remark: listed apart in the source
native MS [6] = target: the molecule itself; remark: listed apart in the source
native MS [7] = target: the molecule itself; remark: listed apart in the source
[8] = target: T1, Bacillus stearothermophilus DnaB helicase (Bacillus stearothermophilus, UniProt Q9X4C9 1-454)
T1 sequence (looked up): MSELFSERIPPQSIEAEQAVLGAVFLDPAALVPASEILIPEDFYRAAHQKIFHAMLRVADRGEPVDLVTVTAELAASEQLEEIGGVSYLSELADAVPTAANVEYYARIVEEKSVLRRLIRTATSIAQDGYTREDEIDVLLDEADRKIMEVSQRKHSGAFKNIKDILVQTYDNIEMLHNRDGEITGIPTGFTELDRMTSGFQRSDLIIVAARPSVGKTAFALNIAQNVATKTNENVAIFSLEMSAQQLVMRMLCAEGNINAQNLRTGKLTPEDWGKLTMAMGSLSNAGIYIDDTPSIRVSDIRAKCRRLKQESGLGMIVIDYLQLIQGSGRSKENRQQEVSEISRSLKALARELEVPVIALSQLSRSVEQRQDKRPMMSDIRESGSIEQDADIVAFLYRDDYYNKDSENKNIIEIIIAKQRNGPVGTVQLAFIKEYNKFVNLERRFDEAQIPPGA

B2: Bacillus subtilis clamp-loader δ subunit (yqeN) (natural protein, UniProt P54459 1-347, looked up)
chain: MVFDVWKSLKKGEVHPVYCLYGKETYLLQETVSRIRQTVVDQETKDFNLSVFDLEEDPLDQAIADAETFPFMGERRLVIVKNPYFLTGEKKKEKIEHNVSALESYIQSPAPYTVFVLLAPYEKLDERKKLTKALKKHAFMMEAKELNAKETTDFTVNLAKTEQKTIGTEAAEHLVLLVNGHLSSIFQEIQKLCTFIGDREEITLDDVKMLVARSLEQNIFELINKIVNRKRTESLQIFYDLLKQNEEPIKIMALISNQFRLILQTKYFAEQGYGQKQIASNLKVHPFRVKLAMDQARLFSEEELRLIIEQLAVMDYEMKTGKKDKQLLLELFLLQLLKRNEKNDPHY
- stoichiometry N [4]: 3 τ per δ
- stoichiometry N [5]: 2 τ per δ

Molecule: B3
- stoichiometry N (native MS [6]): 3 subunits in the oligomer and 2 subunits in the oligomer and 5 subunits in the oligomer
- stoichiometry N (native MS [7]): 4 subunits in the oligomer
- stoichiometry N [8]: 3 τ per DnaB hexamer

Second part, led by results:

- stoichiometry N (subunits in the oligomer) [1]: 2
Molecule: Bacillus subtilis clamp-loader δ subunit (yqeN) (from UniProt P54459 1-347) (natural protein)

- stoichiometry N [2]: 3 τ per δ′ and 2 τ per δ′
B1: Bacillus subtilis clamp-loader δ′ subunit (holB) (natural protein, UniProt P37540 1-329, looked up)
chain: MAISWKEMNELQPRVMKLLYNSIEKDRLSHAYLFEGKKGTGKLDAALLLAKSFFCLEGGAEPCESCRNCKRIESGNHPDLHLVQPDGLSIKKAQIQALQEEFSKTGLESHKKLYIISHADQMTANAANSLLKFLEEPNKDTMAVLITEQPQRLLDTIISRCQTLPFQPLQPKAIEDRLIEQDVSPHMARLLANMTNNVAEAVELSRNDEFAESRAKVIKLYEVLHQRKGHAFFFIQDQWMPFFKEKTHQEMGLDMLLLIYRDVLSIQIGNEDKLIYQDLFQSIKQHALQSTQQSVTNQILAVLEAKKRLHSNVNVQGLMEHLVLMLQEG
- stoichiometry N (native MS [3]): 2 subunits in the oligomer
